Series [1] deals with HBc-pAzF (HBc ending at Val149 with p-azidophenylalanine in place of Ala80) (Hepatitis B virus genotype D, serotype ayw) (UniProt P03146). Put plainly: SEC; analytical HPLC-SEC of urea-dissociated samples: purified HBc VLPs after incubation with 4 M urea, and AEX eluates in 2 M urea; capsid to dimers. (In general: SEC sorts molecules by how far they enter the pores of the column.)

Series [2] deals with the molecule itself. The series is described as above.

From paper PMC12562343, “Modular Virus-like Particles for Antigen Presentation: Comparing Genetic Fusion and Click-Chemistry for Purification” (International Journal of Molecular Sciences, 2025) come the findings set out here.

As for “HBc-pAzF (HBc ending at Val149 with p-azidophenylalanine in place of Ala80) (from UniProt P03146 1-149) (domain or fragment)”, the stoichiometry N (usually a count of units in the complex or per binding partner) in series [1] stood at 2.

B1: truncated Hepatitis B core antigen (HBc) ending at Val149 (domain or fragment)
chain: MDIDPYKEFGATVELLSFLPSDFFPSVRDLLDTASALYREALESPEHCSPHHTALRQAILCWGELMTLATWVGVNLEDPASRDLVVSYVNTNMGLKFRQLLWFHISCLTFGRETVIEYLVSFGVWIRTPPAYRPPNAPILSTLPETTVV
notes: Hepatitis B core antigen (capsid protein), HBV genotype D, serotype ayw, truncated variant ending at Val149; Forms dimers that assemble into VLPs; no tag is mentioned; also called HBc149; unmodified HBc; source: E. coli BL21(DE3), purified (AMS precipitation, AEX native or under dissociating conditions, HIC)
As to B1, the “stoichiometry N” value in series [2] turned out to be 2.
